# Assay results as given in paper PMC7477951 (Structure (London, England : 1993), 2019).
# B1: human HVEM (L39-C162) expressed in Drosophila S2 cells (receptor, UniProt Q92956 39-162, looked up)
# chain: LPSCKEDEYPVGSECCPKCSPGYRVKEACGELTGTVCEPCPPGTYIAHLNGLSKCLQCQMCDPAMGLRASRNCSRTENAVCGCSPGHFCIVQDGDHCAACRAYATSSPGQRVQKGGTESQDTLC
# B2: CD160 part of the single-chain human CD160-HVEM (sc_CD160:HVEM) (domain or fragment)
# chain: INITSSASQEGTRLNLICTVWHKKEEAEGFVVFLCKDRSGDCSPETSLKQLRLKRDPGIDGVGEISSQLMFTISQVTPLHSGTYQCCARSQKSGIRLQGHFFSILFTETGNYTVTGLK
# modifications: glycosylated
# What was measured:
# [1] = molecular target: human HVEM (L39-C162) expressed in Drosophila S2 cells (human) (UniProt Q92956); experiment: SPR
# [2] = molecular target: human LIGHT (L83-V240) expressed in Drosophila S2 cells (human, UniProt O43557 83-240); experiment: SEC
# human LIGHT (L83-V240) expressed in Drosophila S2 cells, sequence (O43557 83-240): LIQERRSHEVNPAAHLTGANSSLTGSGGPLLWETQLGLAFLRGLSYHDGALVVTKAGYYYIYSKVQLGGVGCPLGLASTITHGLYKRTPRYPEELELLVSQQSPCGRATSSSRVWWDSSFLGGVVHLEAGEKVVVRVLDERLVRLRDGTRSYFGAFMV
# [3] = molecular target: T1, HVEM part of the single-chain human CD160-HVEM (sc_CD160:HVEM) (human, UniProt Q92956 39-143); experiment: crystal structure
# T1 sequence: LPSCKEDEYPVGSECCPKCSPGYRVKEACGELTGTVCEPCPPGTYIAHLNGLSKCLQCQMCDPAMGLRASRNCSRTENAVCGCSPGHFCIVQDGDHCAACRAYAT
Molecule,Kd [1] [µM],other results
human CD160 ectodomain (I27-L158) expressed in Drosophila S2 cells (from UniProt O95971 27-158) (domain or fragment),6.7,–
refolded human CD160 ectodomain (residues I27-K144) (from UniProt O95971 27-144) (domain or fragment),7.1,–
B1,–,binding result [2]: binds
B2,–,stoichiometry N [3]: 1
